In a protein production outcome set (Wang et al. 2014) one finds protein production data, which are given here for 16 sequences.

This data set in a line: label from the status in PepcDB records.

Turning to “MPITIGNGFLKSEILTNSPRNTKEAWWKVLWEKIKDFFFSTGKAKADRCLHEMLFADRTPTRERLTEIFFELKELACASQRDRFQVYNPNENDDTIILRIMDQNEENELLRITQNTDAFTCEVMGNAYFLIKDRPDILKPHPQMTAMINRRYSEIVDYPLPSTLCLNPAGAPTLSVPLDNIEGYLYSEWRKGNLDEWKTQEKVTYLAAKIQSGIEKTTRILQHANISESTQQSAFLETMAMCGLKQLEIPPPHTHIPIEKMVKEVLLADKTFQAFLVTDPSTSQSMLAEIVEAISDQVFHAIFRIAPQAIQKMAEEQLTTLHVRSEQQSGCLCCFL”, the protein production entry is “failed”.

Take “MPKEKYEPPDPRRMYTIMSSEEAANGKKSHWAELEISGKVRSLSSSLWSLTHLTALHLSDNSLSCIPSDIAKLHNLVYLDLSHNQIQSLPAELGNMVSLRELHLNYNQLRVLPFELGKLFQLQTLSLKGNPLTQDILNLCLEPDGTRRLLNYLLDNLSVSTEQPPPRSWIMLQEPDRTRPTALFSVMCYNVLCDKYATRQLYGYCPSWALNWDYRKKAIIQEILSCNADIISLQEVETEQYYSFFLVELKERGYNGFFSPKSRARTMSEQERKHVDGCAIFFKTEKFTLVQKHTVEFNQLAMANSEGSEAMLNRVMTKDNIGVAVLLELRKELIEMSSGKPHLGTEKQLILVANAHMHWDPEYSDVKLVQTMMFLSEVKNIIDKASRSLKSSVLGECGTIPLVLCADLNSLPDSGVVEYLSTGGVETNHKDFKELRYNESLTNFSCNGKNGMTNGRITHGFKLKSAYENGLMPYTNYTFDFKVSFHSLIFISMFCNFLSLKHQCML”: the protein production result is “failed”.

With “MPKERVDVLAYKQGLFETREQAKRGVMAGLVVNVINGERYDKPGEKIDDGTELKLKGEKLRYVSRGGLKLEKALAVFNLSVEDMITIDIGASTGGFTDVMLQNGAKLVYAVDVGTNQLVWKLRQDDRVRSMEQYNFRYAEPVDFTEGLPSFASIDVSFISLNLILPALAKILVDGGQVVALVKPQFEAGREQIGKNGIVRESSIHEKVLETVTAFAVDYGFSVKGLDFSPIQGGHGNIEFLAHLEKTDSPQNDVPTSIKEVVAQAHKEFKKNEEERSFGVNPKDCPRK”, the protein production entry is recorded as “not failed”.

As for “MPKILWKSLHLCFPSNLTKCYSSPCIPPSSADPDGIIQPNRPSIVLLNNFNLLYHNDNHHHPHRVIDLPSSSTTTTPAATSSSSTSSYESDISPDVSAAFASRRFFFSSPGRSNAITDSPEPRSREFSDNYDDATITSTKKKKKKVYDNSVTTTTTRLISGGTAVTQHVDSPDPLTDFRRSMQEMIDAAIDAGELSRDPNDGYDFLDELLLTYLSLNPADTHKFVIRAFSDILVSLLSEERRIC”, the protein production result is listed as “failed”.

In the case of “MPKIPITLITGFLGSGKTSFLSEYLNQTDHQGVALIINEIGQAALDQRILSVQYCGEKMLYLNAGCVCCNKRLDLVESLKATLNNYEWHGEILRRIIIETTGLANPAPILWTILSDTFLGVHFEIQSVVACVDALNAREHLTNNEAKEQIVFADSVLLTKTDLQNDSAALTKLKERIQALNPSAEIFDKRAIDYESLFSRKNRARNFMPRMPKDSHSQGFETLSINFEGTMEWSAFGIWLSLLLHQYGTQILRIKGIIDIGSGFLVSINGVMHVIYPPKHILKDQNGSNLVFIMRHLEREKILNSLKGFKDFLGIKGFETQLEHHHHHH”, the protein production result is listed as “not failed”.

In the case of “MPKIWTERIFDDPEIYVLRIDDDRIRYFEAVWEIPEGISYNAYLVKLNGANVLIDGWKGNYAKEFIDALSKIVDPKEITHIIVNHTEPDHSGSLPATLKTIGHDVEIIASNFGKRLLEGFYGIKDVTVVKDGEEREIGGKKFKFVMTPWLHWPDTMVTYLDGILFSCDVGGGYLLPEILDDSNESVVERYLPHVTKYIVTVIGHYKNYILEGAEKLSSLKIKALLPGHGLIWKKDPQRLLNHYVSVAKGDPKKGKVTVIYDSMYGFVENVMKKAIDSLKEKGFTPVVYKFSDEERPAISEILKDIPDSEALIFGVSTYEAEIHPLMRFTLLEIIDKANYEKPVLVFGVHGWAPSAERTAGELLKETKFRILSFTEIKGSNMDERKIEEAISLLKKELE”, the protein production entry was “not failed”.

As to “MPKKLGPKSQRQRGAVAPLTQVQQAACSPTYKQAKRNARSYQGRRRRRRCSQNTTSRVPSQLQAVDSSSASCRTYKNSEELRSRIVSGIITPIHEQWEKANVSSPHREFPPATAREVDPLRIPPHHPHTSRQPPWCDPLGPFVVGGEDLDPFGPRRGGMIVDPLRSGFPRALIDPSSGLPNRLPPGAVPPGARFDPFGPIGTSPPGPNPDHLPPPGYDDMYL”, the protein production result is “failed”.

With “MPKLNLTSIDVLLSDDSDRRQLACKSNHSTVSSLPAMDSRESITSTSPEVAILLCTYHGQRYLPEQLASFEVQSHSNWKVWASDDGSEDGTHAILDAYSRKWPEGRLSICSGPSEGFAANFISLTCKDSIQADFYAYSDQDDIWNVNKLARAVQWLETVPVNIPALYCSRTRLVDSDDNEIGISPLFVRPPSFANALMQNIGGGNTMVFNNAARELFCEAGENTLVVAHDWWAYIAVTGCGGQVFYDREPTLRYRQHNGNLIGTNSNWSARFKRIHMLFQGEFRRWSDINIAALGALEHKLTPENREILQRFASGRKMSLIPRLIQFKRAGIYRQTLFSNFGLVVAAIFGKV”, the protein production result is recorded as “failed”.

Regarding “MPKLTKRILDAAGARPTPYFLWCSDLKGFGVRIFPSGRRVYYADYRTAAGMRRRMSLGEHGKLTVDEARRLAITTLGDVIRGDDPIEERVTRRKSLTIAELCRRYLEAAGAGLVLGRGRKPKKATTLVSDRGRIEHHIVPLLGSRLVRDLTTAEVQRFVRDVQAGRTAKRYKTKARGMVLVEGGAGAAARTAGLLGGIMSYAIGEGVIALNPVRGVKRPADRKKDRRLSPEEYRALGRVLAEAEGDRESWQAVSSIQLLCLTGCRMREIANLRWTEVDFAGRCLRLDNTKEGRSIRPLGQAAVALLRQIEERRAGPYVLPATRGEGGFGGIPDAIERYSKRAGLPGIGAHTLRHSFASTAADLGCSDSTIGAMLGHAGHGVTSRYIHHLDAVLIMAADRVTTAMAGWLKDRYAERLEPAYPASRTVPLS”, the protein production result is recorded as “failed”.

As for “MPKMIMVNKKASESQVMELEKRNYNNPVVLCGFAGSTPTGVLAASYIVETLGMHQVAHLISQHIPPVAVFVGGKLRHPFRIYANNSNTVLVAMCEVPISSAHIYEISNTLMNWIDQVGASEIVIMEGSPANGIPEERPVFAVAEKPKLDKFKKAGIQPADSAIIAGMGGGILNECLVRKITGLSFITPTSVDIPDPGAVLSIIEAINKAYNLKIKTDLLEEQVKALDEQIKKIEEQYKELQEKQKEPQSMYG”, the protein production entry is reported as “not failed”.

Turning to “MPKNDLLLRSLRGEPIGRFPVWLMRQAGRYMPEYRKIRNRVKNFLELCKNVDLATEISLLPLKILGVDAIIIFSDILVPLEPLGVKVEFVEGEGPKLSWSGKVSDLKKYDPSQNAYVYEIIKRVKEAQDEVPVIGFAGAPFTLLSYLIEGGASKDFKSTKLFMWENPKEYKRLMDILTETVLAYLKEQIKAGADVVQIFDSWVNNLSLEDYGEYVYPYVNYLISELKDFSDTPVIYFFRGSSSFIDLAVDYRADALSVDWSVDIPELFKIYDKGFQGNLEPAVLYASEEVIEEKTLGLLRRIPVKTRYVFNLGHGLAPDMELEKVKYLVDLVKSFPLT”, the protein production result is listed as “not failed”.

As to “MPKQTGNARNPFVLLALFILVCSGGCATYPISHDKAVPVARGALFEYPYFHDQVTGIAVSGQGRIFVNFPRWDKDPLYSVAEVLPDGSLRPYPDHGWNRWGADETAHPEAHFICVQSVFVDHSDFLWILDPASPAFNGVVPGGAKLVKVNLKTDQVERVIPFAPSAAPHESYLNDVRIDPEGNFAFITDSGKGAIVVVDLESGKARRLLSGHPSTKAEPGYVPVIEGKELRNEDGTVPKIHADGIALDSRGEYLYYHALVGRTLYRIRTSFLKDPSLPEKDLENHVERIAETGAADGMLMDAQDNLYLTALEENAVKRYRPSEPTLNTIIQGGLHWPDSLAISPDNYLYVTDSQINLAPRFNHGKDLRIIPYKFFKTWLMPFSHDGLLPP”, the protein production result was “failed”.

Take “MPKRRGHGEGTVYQRPDGRWTAQITVGIDHEGKQRRLTLYGKSKKEVLEKLTQALYQQQNGGFIEPSKITVEQWLNRWLTDYAKPHLRQSTWESYETVLRLHVIPTLGSIPLKKLQPADIQRLYASKLESGLSPTRVRYIHVVLHEAMSQARESGLLLQNPTEAAKPPRHPKKKVQPLNPEQVKRFLETAKQDPLYPAFLLALGTGLRRGEILGLRWQDLDLQKGILQVRQSLIRTREGLKFEEPKTEKSRRQIPLPPSVVAALKRHKAWVNQNKLILGPDYEDHDLVFPVENGRPRDPKGFAEYFNRLLDKAGLPHIRLHDLRHTHATLLLLEGVHPKVVQERLGHSTVSITLDIYSHILPGLQEKAAERIDGLLQPKENPSPKEGTIK”: the protein production entry is “failed”.

In the case of “MPKSKEMEEEMKENSQDKNFMYKLAEFIVDKRNLFFLIYIIALVFCIFSRNWVKVENDVTKYLPDSTETRQGLTVMNDQFVTYGTAQVLLANISYDRAQEAADMIEDINGVTSVTFDNTEDHYKGTSALLDVTFDGEEEDQISIDAMNEIKDKLTGYDVYYSTSVANDDSANLESEMQVVTAIAAVIIVVVLLLTSKSYAEVPVLLITFIAAALLNMGTNFLLGTISFISNSVTIVLQLALAIDYAIILCHRYTEERENLPAREATITALSKAIPEISSSSLTTVSGLLALAFMQFKIGEDLAVVLIKAIILSLISVFTLMPGLIMVFSKWMDKTVHKNLIPSISAVGKFAIKTKYIIPPIFAAVIIVACVFANMCPYCFSTGSTSTPRKSESTIAQEKIDSTFGSRNMIALVVPAGNYEAEKNLLADLDACDEVKSTQGLANTEAMDGYMLTDSLTPREFSELVGLDYEVAQLLYSAYAINQENYGEVINSSSKYSVPLIDMFEFLLDEIDKGYVTLEGDLKDQMDDLSGQLDKALLQLKTDDYSRLVVYLNLPEEGDETFAFLDRVHEMMAKYYTDNYYVVGNSTSDYDLSSSFSRDNLVISILSALFVIIILLFTFKSAGLPVLLILVIQGSIWINFSFPYLMDSPLYFLGYLVVNSIQMGANIDYAIVISSRYDDLKKQLPIKEAIIETLNQAFPTIITSGSILAAAGILISFLSTNGVISAIGTCLGRGTIISIILVMGVLPQILYLGDVIIEKTRFSINTDNLIQNTGGTMVINGRMRGYVSGIIDAEIHGVIKGEVKGQIDVNNIDVIKKEEPEDGGDGNEEA”, the protein production entry is recorded as “failed”.

“MPKSPHKLFKANSFWKENNLILREIKHFRKIAILAVIFSFLAASFEGVSIGFLLSFLQKLTSPNDPIQTGISWVDMILAADAWPIPPIYRISLLILLSTWMRATFNYFGGVYTESAQLNLADRLHKQIFEQLQALRLSYFAQTRSGELINTITTEIERIKQGFSGLAFVLTRIMTVCVYFVVMFSISWQLSIISVLIFLLLAVGLSTLNKRVRETSFGISHANAQFTAVAVEFINGIRTIQAFGTQEFERQRFYKASTNQLNAAIKVVLAWTLVKPIAEGIATTVLISLIVISFATFTLPVASLLTFFFVLVRVIPNIQDINGTVAFLSTLQGSSENIKNILQTNNKPYLKNGKLHFQGLKRSIDLVSVDFGYTADNLVLNNITLTIERGKTTALVGASGAGKTTLADLIPRFYDPTEGQILVDGLDVQYFEINSLRRKMAVVSQDTFIFNTSIRDNIAYGTSGASEAEIREVARLANALQFIEEMPEGFDTKLGDRGVRLSGGQRQRIAIARALLRDPEILILDEATSALDSVSERLIQESIEKLSVGRTVIAIAHRLSTIAKADKVVVMEQGRIVEQGNYQELLEQRGKLWKYHQMQHESGQTNS”: the protein production result is on record as “failed”.

In the case of “MPKTLLIPGLDGSPAAHWQQWWALRDPDALLLDLSDVSRPVPAVWEIEVAGAILQHPGAILVGHSLGAILIARLLAKWPHLKVGGAILVAPAEPRHSDRTESFGPIFEESLGVPAYVVSSRNDPWMSFTQAERLARAWRADVVDLGFAGHINVDSGFGPWPGGVVLRDELARRPVP”, the protein production entry was “failed”.
